Source: PMC4316792, “The dehydrogenase region of the NADPH oxidase component Nox2 acts as a protein disulfide isomerase (PDI) resembling PDIA3 with a role in the binding of the activator protein p67^phox” (Frontiers in Chemistry, 2015)

B1: p67^phox(1–212) [not stated] / Nox2 peptide 24 (357–371), dithiol form [modified: biotin on the N-terminus; C-terminal amide; cysteines 369 and 371 in the dithiol form; biotin on the N-terminus; C-terminal … (parent)
chain 1: MSLVEAISLWNEGVLAADKKDWKGALDAFSAVQDPHSRICFNIGCMYTILKNMTEAEKAFTRSINRDKHLAVAYFQRGMLYYQTEKYDLAIKDLKEALIQLRGNQLIDYKILGLQFKLFACEVLYNIAFMYAKKEEWKKAEEQLALATSMKSEPRHSKIDKAMECVWKQKLYEPVVIPVGKLFRPNERQVAQLAKKDYLGKATVVASVVDQD
chain 2: SGSGIVGDWTEGLFNACGC

Variants of: B1
Assay: peptide-protein binding assay (surface-attached biotinylated peptide, protein in solution, kinetic TMB oxidation read-out)
Settings: with Nox2 peptide 24 (357–371), 10 min kinetic experiment, read off a plot

Row | response (Absorbance (650 nm) x 1000/min) | Variant
1 | 10 | chain 1 C40S C45S C121S C165S
